From patent publication US20230357354A1 (ENCEFA, published 2023)

Assays:
[1] = target: T1, recombinant human CD38 (Acrobio, ref CD8-H5224) (human, UniProt P28907 43-300); assay: SPR, Biacore 3000, CM5 chip, recombinant human CD38
T1 construct: Bought protein used in Biacore
Description: Binding affinity was measured and reported by the equilibrium dissociation constant (KD). Recombinant human CD38 (Acrobio, ref CD8-H5224) dissolved in milliQ water was used.

[2] = target: human CD38 on cells (Daudi cells; CD38^+ Jurkat T cells) (human, UniProt P28907 1-300); assay: cell-based or functional assay

Row | Binder | Kd [1] | EC50, glucose uptake (2-NBDG fluorescence), human Daudi cells [2]
1 | NSRDQNFVILEFPVE [CD31 peptide NSRDQNFVILEFPVE (linear)] | 2.3 nM | ~13 nM
2 | CRDQNFVILEFPVEEQC [looped peptide CRDQNFVILEFPVEEQC (SEQ ID NO: 9), free peptide] |  | ~0.1 nM
